Assay results published in the Human Domainome abundance scans (Beltran et al. 2025).
± gives the uncertainty stated by the source.

B1: POU domain, class 5, transcription factor 1, residues 134 to 212; numbered along this chain, Q01860 (parent)
chain: EESQDIKALQKELEQFAKLLKQKRITLGYTQADVGLTLGVLFGKVFSQTTICRFEALQLSFKNMCKLRPLLQKWVEEAD

Variants of: B1
Test: abundance fitness (aPCA) (normalised: wild type 0, dead -1); higher = more abundant; growth selection in yeast, the domain comes from the species named
Details: Homo sapiens

| Variant | abundance fitness |
| --- | --- |
| EESQDIKALQKELEQFRKLLKQKRITLGYTQADVGLTLGVLFGKVFSQTTICRFEALQLSFKNMCKLRPLLQKWVEEAD [A17R] | -0.768 ± 0.32 |
| EESQDIKALQKELEQFVKLLKQKRITLGYTQADVGLTLGVLFGKVFSQTTICRFEALQLSFKNMCKLRPLLQKWVEEAD [A17V] | -0.145 ± 0.42 |
| EESQDIKALQKELEQFGKLLKQKRITLGYTQADVGLTLGVLFGKVFSQTTICRFEALQLSFKNMCKLRPLLQKWVEEAD [A17G] | 0.11 ± 0.13 |
| EESQDIKALQKELEQFPKLLKQKRITLGYTQADVGLTLGVLFGKVFSQTTICRFEALQLSFKNMCKLRPLLQKWVEEAD [A17P] | -0.357 ± 0.45 |
| EESQDIKALQKELEQFTKLLKQKRITLGYTQADVGLTLGVLFGKVFSQTTICRFEALQLSFKNMCKLRPLLQKWVEEAD [A17T] | 0.228 ± 0.38 |
| EESQDIKALQKELELFAKLLKQKRITLGYTQADVGLTLGVLFGKVFSQTTICRFEALQLSFKNMCKLRPLLQKWVEEAD [Q15L] | -0.259 ± 0.1 |
| EESQDIKALQKELEEFAKLLKQKRITLGYTQADVGLTLGVLFGKVFSQTTICRFEALQLSFKNMCKLRPLLQKWVEEAD [Q15E] | 0.07 ± 0.15 |
| EESQDIKALQKELESFAKLLKQKRITLGYTQADVGLTLGVLFGKVFSQTTICRFEALQLSFKNMCKLRPLLQKWVEEAD [Q15S] | -0.094 ± 0.12 |
| EESQDIKALQKELETFAKLLKQKRITLGYTQADVGLTLGVLFGKVFSQTTICRFEALQLSFKNMCKLRPLLQKWVEEAD [Q15T] | -0.329 ± 0.23 |
| EESQDIKALQKELERFAKLLKQKRITLGYTQADVGLTLGVLFGKVFSQTTICRFEALQLSFKNMCKLRPLLQKWVEEAD [Q15R] | -0.181 ± 0.083 |
| EESQDIKALQKELEDFAKLLKQKRITLGYTQADVGLTLGVLFGKVFSQTTICRFEALQLSFKNMCKLRPLLQKWVEEAD [Q15D] | 0.089 ± 0.18 |
| EESQDIKALQKELEWFAKLLKQKRITLGYTQADVGLTLGVLFGKVFSQTTICRFEALQLSFKNMCKLRPLLQKWVEEAD [Q15W] | -0.442 ± 0.13 |
| EESQDIKALQKELEHFAKLLKQKRITLGYTQADVGLTLGVLFGKVFSQTTICRFEALQLSFKNMCKLRPLLQKWVEEAD [Q15H] | -0.27 ± 0.3 |
| EESQDIKALQKELECFAKLLKQKRITLGYTQADVGLTLGVLFGKVFSQTTICRFEALQLSFKNMCKLRPLLQKWVEEAD [Q15C] | -0.218 ± 0.2 |
| EESQDIKALQKELEAFAKLLKQKRITLGYTQADVGLTLGVLFGKVFSQTTICRFEALQLSFKNMCKLRPLLQKWVEEAD [Q15A] | 0.127 ± 0.12 |
| EESQDIKALQKELEKFAKLLKQKRITLGYTQADVGLTLGVLFGKVFSQTTICRFEALQLSFKNMCKLRPLLQKWVEEAD [Q15K] | -0.631 ± 0.43 |
| EESQDIKALQKELEMFAKLLKQKRITLGYTQADVGLTLGVLFGKVFSQTTICRFEALQLSFKNMCKLRPLLQKWVEEAD [Q15M] | -0.184 ± 0.17 |
| EESQDIKALQKELEGFAKLLKQKRITLGYTQADVGLTLGVLFGKVFSQTTICRFEALQLSFKNMCKLRPLLQKWVEEAD [Q15G] | 0.008 ± 0.086 |

| Variant | abundance fitness |
| --- | --- |
| EESQDIKALQKELEQFAMLLKQKRITLGYTQADVGLTLGVLFGKVFSQTTICRFEALQLSFKNMCKLRPLLQKWVEEAD [K18M] | 0.052 ± 0.15 |
| EESQDIKALQKELEQFAALLKQKRITLGYTQADVGLTLGVLFGKVFSQTTICRFEALQLSFKNMCKLRPLLQKWVEEAD [K18A] | 0.021 ± 0.11 |
| EESQDIKALQKELEQFAFLLKQKRITLGYTQADVGLTLGVLFGKVFSQTTICRFEALQLSFKNMCKLRPLLQKWVEEAD [K18F] | -0.268 ± 0.44 |
| EESQDIKALQKELEQFAGLLKQKRITLGYTQADVGLTLGVLFGKVFSQTTICRFEALQLSFKNMCKLRPLLQKWVEEAD [K18G] | -0.147 ± 0.12 |
| EESQDIKALQKELEQFAQLLKQKRITLGYTQADVGLTLGVLFGKVFSQTTICRFEALQLSFKNMCKLRPLLQKWVEEAD [K18Q] | 0.029 ± 0.19 |
| EESQDIKALQKELEQFARLLKQKRITLGYTQADVGLTLGVLFGKVFSQTTICRFEALQLSFKNMCKLRPLLQKWVEEAD [K18R] | -0.222 ± 0.099 |
| EESQDIKALQKELEQFAHLLKQKRITLGYTQADVGLTLGVLFGKVFSQTTICRFEALQLSFKNMCKLRPLLQKWVEEAD [K18H] | -0.523 ± 0.48 |
| EESQDIKALQKELEQFAELLKQKRITLGYTQADVGLTLGVLFGKVFSQTTICRFEALQLSFKNMCKLRPLLQKWVEEAD [K18E] | -0.415 ± 0.2 |
| EESQDIKALQKELEQFALLLKQKRITLGYTQADVGLTLGVLFGKVFSQTTICRFEALQLSFKNMCKLRPLLQKWVEEAD [K18L] | -0.091 ± 0.11 |
| EESQDIKALQKELEQPAKLLKQKRITLGYTQADVGLTLGVLFGKVFSQTTICRFEALQLSFKNMCKLRPLLQKWVEEAD [F16P] | -0.023 ± 0.34 |
| EESQDIKALQKELEQCAKLLKQKRITLGYTQADVGLTLGVLFGKVFSQTTICRFEALQLSFKNMCKLRPLLQKWVEEAD [F16C] | -0.23 ± 0.21 |
| EESQDIKALQKELEQWAKLLKQKRITLGYTQADVGLTLGVLFGKVFSQTTICRFEALQLSFKNMCKLRPLLQKWVEEAD [F16W] | -0.341 ± 0.3 |
| EESQDIKALQKELEQEAKLLKQKRITLGYTQADVGLTLGVLFGKVFSQTTICRFEALQLSFKNMCKLRPLLQKWVEEAD [F16E] | -0.438 ± 0.39 |
| EESQDIKALQKELEQRAKLLKQKRITLGYTQADVGLTLGVLFGKVFSQTTICRFEALQLSFKNMCKLRPLLQKWVEEAD [F16R] | -0.394 ± 0.15 |
| EESQDIKALQKELEQGAKLLKQKRITLGYTQADVGLTLGVLFGKVFSQTTICRFEALQLSFKNMCKLRPLLQKWVEEAD [F16G] | -0.522 ± 0.23 |
| EESQDIKALQKELEQLAKLLKQKRITLGYTQADVGLTLGVLFGKVFSQTTICRFEALQLSFKNMCKLRPLLQKWVEEAD [F16L] | -0.133 ± 0.16 |
| EESQDIKALQKELEQAAKLLKQKRITLGYTQADVGLTLGVLFGKVFSQTTICRFEALQLSFKNMCKLRPLLQKWVEEAD [F16A] | -0.191 ± 0.32 |
